Data published in article PMC4188031.

Columns and labels:
Assay in all cases: SPR (ProteOn XPR36, GLC chip), co-injection mode with pH shift
Conditions in all cases: pH 7.4; 25°C (stated for the immobilisation step; not restated for the binding runs); 150 mM NaCl (plus 20 mM Na-phosphate); PBS-TE: 20 mM Na-phosphate; association at pH 6.0, dissociation at pH 7.4
[1] = target: B21M anti-RSV IgG1 N434A N434A (EU numbering) (UniProt P01857)
[2] = target: B21M anti-RSV IgG1 N434Y N434Y (EU numbering) (UniProt P01857)
[3] = target: B21M anti-RSV IgG1, wild-type Fc (mAb WT) (UniProt P01857)

off-rate (koff) after pH shift 6.0 to 7.4 [1]: 0.09 1/s
off-rate (koff) after pH shift 6.0 to 7.4 [2]: 0.02 1/s
off-rate (koff) after pH shift 6.0 to 7.4 [3]: 0.07 1/s
Substance: neonatal Fc receptor (rat FcRn, rFcRn)
